In patent US20250250320A1 (UNIVERSITE CATHOLIQUE DE LOUVAIN, published 2025):
One block for each molecule: values may come before it.

What was measured:
[1] = molecular target: CALR del52 (human calreticulin mutant L367fs*46), full length, no tag stated (human); test: flow cytometry on living Ba/F3 cells with human TPOR and CALR mutant after adding the Fc fusion to the medium; concentration not given
[2] = molecular target: the molecule itself; test: native gel with or without DTT (self-association)
[3] = molecular target: T1, recombinant complete extracellular domain of TpoR with mature glycans (human, UniProt P40238 26-490, mature glycans); test: HDx-MS of mature TpoR ECD alone or with CALR del52
T1 construct: Purified recombinant protein used in HDx-MS; also called TpoR ECD; D1D2D3D4
T1 sequence: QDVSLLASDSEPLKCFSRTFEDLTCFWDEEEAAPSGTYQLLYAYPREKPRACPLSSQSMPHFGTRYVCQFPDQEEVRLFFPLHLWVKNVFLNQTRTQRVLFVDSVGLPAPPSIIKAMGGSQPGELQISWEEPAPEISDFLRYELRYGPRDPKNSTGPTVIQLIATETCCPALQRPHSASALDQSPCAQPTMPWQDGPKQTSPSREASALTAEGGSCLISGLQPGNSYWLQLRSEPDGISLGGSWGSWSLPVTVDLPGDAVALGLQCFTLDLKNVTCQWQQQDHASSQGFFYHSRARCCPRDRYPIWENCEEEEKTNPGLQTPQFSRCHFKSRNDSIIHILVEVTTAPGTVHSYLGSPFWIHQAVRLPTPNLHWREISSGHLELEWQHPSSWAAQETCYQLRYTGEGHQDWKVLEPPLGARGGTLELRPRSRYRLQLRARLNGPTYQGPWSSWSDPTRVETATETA
Description: Hydrogen-Deuterium Exchange Mass Spectrometry (HDx-MS): Hydrogen-Deuterium Exchange Mass Spectrometry was performed with a Waters nanoAcquity UPLC with HDx technology coupled with Synapt G2-Si. All purified recombinant proteins were used at 20 μM concentration in equilibration buffer (5 mM K2HPO4, 5 mM KH2PO4 dissolved in H2O, pH 7). For interaction analysis between recombinant mature D1D2D3D4 and CALR del52, proteins were first mixed together at a 1:1 molarity for 30 minutes at room temperature followed by 3 hours at 4° C. Proteins were then kept at 0° C. Labelling was performed with a 20-fold dilution of samples in labelling buffer (5 mM K2HPO4, 5 mM KH2PO4 dissolved in D20, pD 7) for 6 different incubation times (0, 0.25, 1, 5, 20 and 60 minutes) at 20° C. After incubation, the reaction was quenched using a 1:1 dilution in the quench buffer (0.05 M K2HPO4, 0.05 M KH2PO4 with 30 mM TCEP, pH 2.3) prior to injection into a pepsin column (Enzymate BEH Pepsin 2.1×30 Column, Waters CAT. 186007233) with dynamic flowrate of 150-75 μL/min. […] The peptides identified were further analyzed with DynamX 3.0 (Waters) using a tolerance of 10 ppm, a maximum length of 35 a.a., a minimum products per amino acid of 0.2 and requiring that each peptide was identified in 3 out of 3 replicates. […] Data was statistically analyzed using Deuteros 2.0 with peptide-level significance testing (Lau et al., 2021). […]

[4] = molecular target: T2, TpoR D1D2 (sD1D2) with immature glycans, produced with CALR del52 in Drosophila S2 (Schneider) cells (human, UniProt P40238 26-283, limits assumed, immature glycans (Asn117)); test: complex co-produced in S2 cells, size-exclusion chromatography, HDx-MS
T2 construct: Purified as a complex with CALR del52 for HDx-MS; also called immature TpoR
T2 sequence: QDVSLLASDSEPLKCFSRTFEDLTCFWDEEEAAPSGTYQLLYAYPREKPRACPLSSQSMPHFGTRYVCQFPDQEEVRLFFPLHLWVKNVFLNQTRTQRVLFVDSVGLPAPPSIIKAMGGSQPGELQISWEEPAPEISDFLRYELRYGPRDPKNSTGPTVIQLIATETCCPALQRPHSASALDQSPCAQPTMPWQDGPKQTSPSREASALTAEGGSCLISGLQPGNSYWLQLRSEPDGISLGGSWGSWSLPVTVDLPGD
From the text: All peptides were visually validated based on retention time, drift time and isotopic m/z. Data was statistically analyzed using Deuteros 2.0 with peptide-level significance testing (Lau et al., 2021).
Subsequently, CALR del52-D1D2 produced as a complex in Schneider cells was purified. Briefly, the extracellular domain of the human TpoR and human CALR mutant del52 produced in Drosophila S2 cells (Thermo Fisher Scientific) were fractionated by using size-exclusion chromatography by loading on a Superdex 200 Increase 10/300 column (GE Healthcare). Elution was performed at 0.5 mL/min with buffer TNG (Tris-NaCl-glycerol) pH 7.5, and 0.5 mL fractions were collected and analyzed by sodium dodecyl sulfate-polyacrylamide gel electrophoresis and western blot. Fraction proteins were immunoprecipitated with anti-His5 antibody (Qiagen) and treated with Endoglycosidase-H (NEB) or N-glycosidase F (NEB). HDx-MS was used to detect all interaction sites between CALR del52 and TpoR D1D2 (sD1D2) produced in the same cells. […] Importantly, this region was not involved in binding of mature TpoR as shown above, confirming that it is specifically involved in interaction with immature glycans. […]

[5] = molecular target: the molecule itself; test: native gel of CALR species with or without DTT (self-association)

reduction of the level of CALR mutant at the cell surface [1]: > 50%
Molecule: D1-Fc (TPOR D1 domain fused through its C-terminus to an Fc fragment) (from UniProt P40238 26-121) (Fc fusion)

binding result [3]: binds | binding result [4]: binds
B1: CALR del52 (human calreticulin mutant L367fs*46), full length, no tag stated (other)
chain: EPAVYFKEQFLDGDGWTSRWIESKHKSDFGKFVLSSGKFYGDEEKDKGLQTSQDARFYALSASFEPFSNKGQTLVVQFTVKHEQNIDCGGGYVKLFPNSLDQTDMHGDSEYNIMFGPDICGPGTKKVHVIFNYKGKNVLINKDIRCKDDEFTHLYTLIVRPDNTYEVKIDNSQVESGSLEDDWDFLPPKKIKDPDASKPEDWDERAKIDDPTDSKPEDWDKPEHIPDPDAKKPEDWDEEMDGEWEPPVIQNPEYKGEWKPRQIDNPDYKGTWIHPEIDNPEYSPDPSIYAYDNFGVLGLDLWQVKSGTIFDNFLITNDEAYAEEFGNETWGVTKAAEKQMKDKQDEEQRTRRMMRTKMRMRRMRRTRRKMRRKMSPARPRTSCREACLQGWTEA
notes: also called CALR mutant; mutant CALR
binding result [2]: binds

B2: CALR Δc-tail (other)
chain: EPAVYFKEQFLDGDGWTSRWIESKHKSDFGKFVLSSGKFYGDEEKDKGLQTSQDARFYALSASFEPFSNKGQTLVVQFTVKHEQNIDCGGGYVKLFPNSLDQTDMHGDSEYNIMFGPDICGPGTKKVHVIFNYKGKNVLINKDIRCKDDEFTHLYTLIVRPDNTYEVKIDNSQVESGSLEDDWDFLPPKKIKDPDASKPEDWDERAKIDDPTDSKPEDWDKPEHIPDPDAKKPEDWDEEMDGEWEPPVIQNPEYKGEWKPRQIDNPDYKGTWIHPEIDNPEYSPDPSIYAYDNFGVLGLDLWQVKSGTIFDNFLITNDEAYAEEFGNETWGVTKAAEKQMKDKQDEEQR
notes: the C-tail is absent
binding result [5]: no binding
